Series [1] deals with human KCC3 (SLC12A6), K+-Cl- cotransporter 3, full length (human) (UniProt Q9UHW9). The experiment in a line: cryo-EM structure; single particle cryo-EM of the purified full-length transporter, no inhibitor; KCC2 at 3.2 Å, KCC3 at 3.3 Å overall.
Series [2] deals with the molecule itself. The description is as above.

In general, stoichiometry N refers to a count of units in the complex or per binding partner. In series [1], “human KCC3 (SLC12A6), K+-Cl- cotransporter 3, full length (from UniProt Q9UHW9-2 1-1099) (natural protein)” displayed a stoichiometry N of 2.

B1: human KCC2 (SLC12A5), K+-Cl- cotransporter 2, full length (natural protein, UniProt Q9H2X9 1-1139, looked up)
chain: MSRRFTVTSLPPAGPARSPDPESRRHSVADPRHLPGEDVKGDGNPKESSPFINSTDTEKGKEYDGKNMALFEEEMDTSPMVSSLLSGLANYTNLPQGSREHEEAENNEGGKKKPVQAPRMGTFMGVYLPCLQNIFGVILFLRLTWVVGIAGIMESFCMVFICCSCTMLTAISMSAIATNGVVPAGGSYYMISRSLGPEFGGAVGLCFYLGTTFAGAMYILGTIEILLAYLFPAMAIFKAEDASGEAAAMLNNMRVYGTCVLTCMATVVFVGVKYVNKFALVFLGCVILSILAIYAGVIKSAFDPPNFPICLLGNRTLSRHGFDVCAKLAWEGNETVTTRLWGLFCSSRFLNATCDEYFTRNNVTEIQGIPGAASGLIKENLWSSYLTKGVIVERSGMTSVGLADGTPIDMDHPYVFSDMTSYFTLLVGIYFPSVTGIMAGSNRSGDLRDAQKSIPTGTILAIATTSAVYISSVVLFGACIEGVVLRDKFGEAVNGNLVVGTLAWPSPWVIVIGSFFSTCGAGLQSLTGAPRLLQAISRDGIVPFLQVFGHGKANGEPTWALLLTACICEIGILIASLDEVAPILSMFFLMCYMFVNLACAVQTLLRTPNWRPRFRYYHWTLSFLGMSLCLALMFICSWYYALVAMLIAGLIYKYIEYRGAEKEWGDGIRGLSLSAARYALLRLEEGPPHTKNWRPQLLVLVRVDQDQNVVHPQLLSLTSQLKAGKGLTIVGSVLEGTFLENHPQAQRAEESIRRLMEAEKVKGFCQVVISSNLRDGVSHLIQSGGLGGLQHNTVLVGWPRNWRQKEDHQTWRNFIELVRETTAGHLALLVTKNVSMFPGNPERFSEGSIDVWWIVHDGGMLMLLPFLLRHHKVWRKCKMRIFTVAQMDDNSIQMKKDLTTFLYHLRITAEVEVVEMHESDISAYTYEKTLVMEQRSQILKQMHLTKNEREREIQSITDESRGSIRRKNPANTRLRLNVPEETAGDSEEKPEEEVQLIHDQSAPSCPSSSPSPGEEPEGEGETDPEKVHLTWTKDKSVAEKNKGPSPVSSEGIKDFFSMKPEWENLNQSNVRRMHTAVRLNEVIVKKSRDAKLVLLNMPGPPRNRNGDENYMEFLEVLTEHLDRVMLVRGGGREVITIYS
notes: K+-Cl- cotransporter KCC2 (SLC12A5), human, full length; Printed residues: Y407, N-terminal loop A65-N83; It says the KCC2 structure is very similar to that of KCC3; source: expressed and purified
In the case of B1, in series [2], the binding result is given as “binds”.

(Values after publication PMC8182806, “Cryo-EM structures of the full-length human KCC2 and KCC3 cation-chloride cotransporters” (Cell Research, 2020).)
